These results are taken from the DeepSol protein solubility set.

The data set can be described thus: soluble on expression in E. coli; label from the status in PepcDB or PDB records.
Turning to “MSLEQKQMEEKIMNLLTSAPDKTFALEDLEIEIALNNADNFKLMVKALVKLEDSGTIVRSRKNRYALPEKMDLVKGTFRAHERGFGFVLPEEKEMDDIFIPPNEVKDAMNGDLVFATITKRKGDNLAEGTIKKIVERKTTQIVGTYMEDLAGTPIVMPDDKRLFGEVEIDLEDGLKPVDGHKVIVELTEYATGHARARGVVKSIIGHRNDPGVDILSIIHKHGISIGFPEEVMEQVSKAPDLVDDSDIGNRRDLRDQMIITIDGADAKDLDDAVTVKQLPNGNWKLGVHIADVTHYVTEGSPLDIEAQERGTSVYLVDRVIPMLPHKLSNGICSLNPQVDRFTMSCEMEIDQEGHVVNHEIFESIIKTTERMTYTDVNDILVEKDEALREKYAPIVPMLEAMQNLAEILRRKREKRGAIDFDFKEARVVVDEDGHPEAVVMRERSAGEHLIEEFMLAANETVAEHFHWMDVPFIYRIHEDPKEDKLARFFEFITNFGLIVKGTANDIHPAALQQVLEEVKGKPEEMVVSTVMLRSMQQAKYDTVSAGHFGLSTDFYTHFTSPIRRYPDLIVHRLIREYLINGDVRPETLEKRAEELPEIAEHSSKMERRAVEAERETDELKKTEFMVDKVGERFIGIISSVTNFGLFIELPTTIEGLVHVSAMKGDYFKFHQNQLAMIGERTGQIYRIGDEVEVEVTKVDVDAREIDFALRSEGKPGPVSDKQKRQREKPIDKTRNFKSSSKNNRNKRRTGKSEDVKPKTERKDDEWYTKPKKKKKKKPFYQGVAKESPKKKKRREGHHHHHH”, the “soluble on expression in E. coli” value is reported as “soluble”.

“MGHHHHHHSHMRLPSKPYSTLPIFSLGPSALQRGESSMRSEKPSTAHHRPLRSIARFSSKSKSMDKSDEELQFPKELMEDWSTMEVCVDCKKFISEIISSSRRSLVLANKRARLKRKTQSFYMSSPGPSEYCPSERTISEI”: the “soluble on expression in E. coli” value is given as “not soluble”.

As to “MSAKTKFKSPAFEPIHSAASGLFSVDAIPQETMRSFDTACLSSIKDLQPLEIKALREKLNVSQPVFARYLNTSVSTVQKWESGAKRPSGMSLKLLNVVQKHGLKVLV”, the “soluble on expression in E. coli” value is on record as “not soluble”.

Turning to “MGSDKIHHHHHHMLYQLHEFNRSLLNPLMHWAEASSRLFTDPASPLAYTPYAQRIAAGYELLYRLGKQYEKPNFNIESVLVNGKTVAIVEEETEKKSFCTLIHFRKKLSAKEFAALKQPVVLLVAPLSGHHSTLLRDTVRSLLQDHDVYITDWTDARMVPLAEGPFHLHDYVYYIQDFIRRLGPDLHVISVCQPTVPVLAAISLMASERDPRLPKTMTMMGGPIDARKSPTQVNDLAVEKPHAWFENQVIYSVPPSYPGFGRKVYPGFLQHAGFIAMNPGRHAQSHWDFYMHLREGDNESAEEHRKFYDEYNAVLDMPAEYYLETIKTVFQEHRLPLGTWEIEGKLVRPQDIKSVALFTIEGEKDDISGAGQTHAAQDLCSALPQSDKQQFTAPQCGHYGIFSGRKWREIIAPKIGEFITRYS”, the “soluble on expression in E. coli” value is “not soluble”.

In the case of “MPLVTRNIEPRHLCRQTLPSVRSELECVTNITLANVIRQLGSLSKYAEDIFGELFTQANTFASRVSSLAERVDRLQVKVTQLDPKEEEVSLQGINTRKAFRSSTIQDQKLFDRNSLPVPVLETYNTCDTPPPLNNLTPYRDDGKEALKFYTDPSYFFDLWKEKMLQDTKDIMKEKRKHRKEKKDNPNRGNVNPRKIKTRKEEWEKMKMGQEFVESKEKLGTSGYPPTLVYQNGSIGCVENVDASSYPPPPQSDSASSPSPSFSEDNLPPPPAEFSYPVDNQRGSGLAGPKRSSVVSPSHPPPAPPLGSPPGPKPGFAPPPAPPPPPPPMIGIPPPPPPVGFGSPGTPPPPSPPSFPPHPDFAAPPPPPPPPAADYPTLPPPPLSQPTGGAPPPPPPPPPPGPPPPPFTGADGQPAIPPPLSDTTKPKSSLPAVSDARSDLLSAIRQGFQLRRVEEQREQEKRDVVGNDVATILSRRIAVEYSDSEDDSSEFDEDDWSD”, the “soluble on expression in E. coli” value is recorded as “soluble”.

Turning to “MAHHHHHHMKAKGFHHSTPNFNTAEFTDAADPSDLANDIVTESAVAVDFARDIYGPWLVMTDDLQGELFVDHDGFVYYRPANGLGYGIGKLQVLDAGATGTAFTCQLESYSYQPTNTVVPQYGLTFDITGMVKRVTAKSSDYKTFSLVGVWRRSNRNKGAPALLPSQRSSSDAAVEGASAALSPESLDNQGALDGPGEKTSGQFNAAKLSPWDPSTAARPFAPNAELQSVFTQVFPERLRAESHVQRAEASRESPAARHLAGCAGKPSLMHLDLEQYATGKIPGIYYIPDYISVAEEAQILTFIHGTPEELKSKLTKRTCQEWGCTMCESCQKSFVSDANMPQWVQEFIDMQVYDGLFTPTTFPNSVRIHEYHQGDGIGPHCDGPIYVPMVTVLSLASSCLMSFYPKQPLYENHPMDHYNDTFKFGEGDIGRRVPLQSVVMEPRSLLIFSGEGYYHYPHGISDKAEEVLTPEVVGEVVNRRFLRDPHVQSIPRTYRASITTRNLMTRCSHQPARAEYAMKRAWYLYNHLPVPSELFTPAPQLPQQQQQPAGVSAGGSSGSRESSDASATRSPQKRVESFFPACAPPGTVAVDTELREAIYEMRARQEDLRNNVEELKQLVALSIPVQTTFQTETATILNHLSSSVLQLESKVDDLLEEVESAKRKSSTDT”, the “soluble on expression in E. coli” value is “not soluble”.

Regarding “MLISKHEERVKSILSARMENGNLRSRENTQVEFKQSFNKGNIAIYAKTMAAFSNNSGGYIIFGIKDSPRSIIGLQNSNFENIQQEDLTDSINNLFSPSINELGSFILKEKEINSNGDVIIVQKIIGIYTEESNIKPVIAQKNNSSEKIVNGDIFYRYRARTEKIKYAEMEQIINCRMKQERDSLFKVFEFIRNNGATNLGIVDYNNGKLSTPYGVDVVLEKNLIAKLLKKAKFIKEGSFSENEGIPVIKVTGNINLAEEVPVPLENLDETYPYIQKQLAEKLNITPQKLYALIYFKMKESKKYHLEITTSKTNKTHKFSKFALLFLKEKIIELDENKNELEHHHHHH”, the “soluble on expression in E. coli” value was “not soluble”.

As to “SFAKTGQLFNQTHLEEKKEIAQKAIQFIQEGDSIILDSGSTTTEIAKLLMNYKDLTVITNALNIALILGENHGINLIVTGGEFKAPTLSLTGKMAADSFKDIRANKLFLATAGISSDMKLTYPSLSDLVVKSAMIESASKVYLVADCSKI”, the “soluble on expression in E. coli” value was “not soluble”.

For the sequence “MSLDNDTVKVGDLVQINLPGEASLNQGFQVDRRGRINLPEIGPVFVAGYNEQQLQDVIIETLKTVYRDVNNARVFIKQQQLLVSVQGYVVKPGEYTLPAGSNIQMFVYEAGGLRAGAQLDKMIVKRGDQNIEFDYKRFLDTGDNEGHHHHHH”, the “soluble on expression in E. coli” value is reported as “soluble”.

Turning to “MAEAYLEYLGKHDVLTKLHNRAFYSDELNRLERSALRPVSAIVIDLNGLKEANDKLGHDAGDALLRRVGEVLNGVVTAPNHAARIGGDEFAILLPGADKQVAAAMVDTVYELLKINNQFYSSAPLSLSLGVATTEAGETMESLVRRADMNMYEQKNAYYAALRNRSADNNDTTKGLEHHHHHH”, the “soluble on expression in E. coli” value is “soluble”.

With “MSYSWKKILIKPESTVVDALRVIDNEALRIALVVNDEQQLLGVVTDGDIRRGLLNNLPLETPVVDIMSRSPITASVNTAKEQLVKLMESKSILAVPLMEENKVVGLETLHHLFEEKTYHNPVFIMAGGFGTRLRPLTDTCPKPMLKIGNKPILETVIRSFIKAGFVNFYISTHYMPEQIQNHFGDGSELGVKISYVHEDSPLGTGGALGLLPDDLPQDLPLIMMNGDVLTKVDFERLLDFHTENQADATMCVREYDYQIPYGVINGKGNKITSMVEKPIQRFFVNAGIYVVSPSVIQSVPKNHHIDMPTLLEQHMNERDNILMFPIHEYWLDIGRMDDFNRAQADIHTLGLDLEHHHHHH”, the “soluble on expression in E. coli” value is recorded as “not soluble”.

As to “MLSSKFPLLVATDLSPTGKVVLEKAFKLAKRYHKPLFILHVSETTLFAPKIIELTQIEANLCKLLEPFYARYPEVKATLLCRQGGIEESIISAIKETQASLLLIGTSGEDNLLREFFLGSHCRKIIRSSTIPVLVVKNEEESDYSKIFIPTDFSPSSQKMANLTLHLFPHAYISLFHVILKPFEQRLGMYGLDKDEILRYHKDIDNQSASEADHFIEKLKLPSGKHRIKLLMETGVFSAKLCLQKVKEAQSDLIALNTTGNISFFSMDILNQSPKDVLIFKTDSE”, the “soluble on expression in E. coli” value is on record as “not soluble”.

“MATYRQRGKKKLWDYRIFNEKSELVASGSGFKTKREAMNEAMRIEQQKLLVNSISSDITLYDLWFEWYSLIIKPSNLAETTKNKYFTRGSVIRKLFGNQKVNKIKHSAYQRKLNTYAEKYTKNHVRRLNSDIKKAIQFAKRDGVLLSDFTDGVVIAGRKFVKDADDKYLHSIFDYKKVISYLENNLDYSNSIVYYLLLVLFKTGLRVGEALALTWDDVNFEDLEIKTYRRFSGDKGTFSPPKTKTSIRTIPISQSLALILRDLKDDQQVMLKNLKIVNMNNQIFYDYRYGVSTNSAINKSLKNVLKILNINSKMTATGARHTYGSYLLAKGVDIWVVARLMGHKDITQLLETYGHVLTEVINKEYETVRSLVS”: the “soluble on expression in E. coli” value was “not soluble”.

In the case of “DRICTNCCAGTKGCKYFSDDGTFVCEGESDPRNPKACTLNCDPRIAYGVCPRSEEKKNDRICTNCCAGTKGCKYFSDDGTFVCEGESDPRNPKACPRNCDPRIAYGICPLA”, the “soluble on expression in E. coli” value is “soluble”.

As to “MSQNASVGIVMPQKIPFEMPLVLENGKTLPRFDLMIETYGELNAEKNNAVLICHALSGNHHVAGRHSAEDKYTGWWDNMVGPGKPIDTERFFVVGLNNLGGCDGSSGPLSINPETGREYGADFPVVTVKDWVKSQAALADYLGIEQWAAIVGGSLGGMQALQWTISYPERVRHALVIASAPKLSTQNIAFNDVARQAILTDPDFNEGHYRSHNTVPARGLRIARMMGHITYLAEDGLGKKFGRDLRSNGYQYGFGVEFEVESYLRYQGDKFVGRFDANTYLLMTKALDYFDPAADFGDSLTRALQNVKAKFFVASFSTDWRFAPERSHELVKALIAAQKSVQYIEVKSAHGHDAFLMEDEAYMRAVAAYMNNVYKECQQ”, the “soluble on expression in E. coli” value is “not soluble”.

Consider “MKISIICPLYNAENYIMSLHNKILEQEKPEGTEVEVSYVLTRCKDKTEEMLKNMNLQYTLIEPKDFSHSKTREMMAFKSTGDIIVFISQDVMMKNNFWLKNLVQPIIDGECEASFSRQLCTNNTIEKYIREKNYPEESRVVSKKDINKYGLLTFFYSDASSAVKTSVYKELNGYDNKRLLINEDMYFAEKLIQAGYRIKYCSDSEVYHSHVFTLKSLYERYFDTGVFFRQNSQFLNYKGNKSGKDLAIHVLKRSLEDKNFKVTLNILPNFGARFIGSFLGKKYESLPRSFVMASSMSKKVYSQILEHHHHHH”, for which the “soluble on expression in E. coli” value is recorded as “soluble”.

Consider “MSLVKKGAALLMVATMALSSAACSNSKTEGKPEVQAKVAPVEKNGDKTVIRFWHAMGGKTQGVLDGLVADYNKSQNKYEIKAEFQGTYEESLTKFRTMSATKEAPALVQSSEITTKYMIDSKKITPIDSWIKKDKYDTSKLEKAITNYYSVDGKMYSMPFNSSTPVLIYNKDAFAKAGLDPEKAPKTYAELQEAAKKLTIKEGGNVKQYGFSMLNYGWFFEELLATQGALYVDNENGRKDAAKKAVFNGKEGQKVFGMLDDLNKAGALGKYGASWDDIRAAFQSGQVAMYLDSSAGVRDLIDASKFNVGVSYIPYPEDSKQNGVVIGGASLWMTNMVSEETQQGAWDFMKYLTKPDVQAKWHTATGYFSINPDAYNEPLVKEQYEKYPQLKVTVDQLQATKQSPATQGALISVFPESRDAVVKALEAMYDGKNSKEALDEAAKATDRAISISARTSQK”, for which the “soluble on expression in E. coli” value is given as “not soluble”.

With “MQDRNFDDIAEKFSRNIYGTTKGQLRQAILWQDLDRVLEEIGGRKLRVLDAGGGEGQTAIKMAERGHQVTLCDLSGEMIARARQAAEAKGVSKDMHFIQCPAQDVASHLESPVDLILFHAVLEWVADPVGVLETLWSVLRPGGALSLMFYNANGLLMHNMVAGNFDYVQAGMPKRKKRTLSPDYPRDPAQVYQWLEAIGWQITGKTGVRVFHDYLREKHQQRDCYETLVELETRYCRQEPYISLGRYIHVTAIKSPALAADARITYE”, the “soluble on expression in E. coli” value is “not soluble”.
